From PMC8376246, “Analysis of the mechanosensor channel functionality of TACAN” (eLife, 2021)
Numbering of substitutions follows the chain as printed. In names and notes the source's numbering stands.

B1: Mus musculus full-length TMEM120A (TACAN, residues 1–343), wild type (natural protein, UniProt Q8C1E7 1-343, looked up)
chain: MQSPPPDPLGDCLRNWEDLQQDFQGIQETHRLYRLKLEELTKLQANCTNSITRQKKRLQELALVLKKCRPSLPSESMEAAQELENQMKERQGLFFDMEAYLPKKNGLYLSLVLGNVNVTLLSKQAKFAYKDEYEKFKLYLTIILIVISFTCRFLLNSRVTDAAFNFLLVWYYCTLTIRESILINNGSRIKGWWVFHHYVSTFLSGVMLTWPDGLMYQKFRNQFLSFSMYQSFVQFLQYYYQSGCLYRLRALGERHTMDLTVEGFQSWMWRGLTFLLPFLFFGHFWQLFNALTLFNLARDPECKEWQVLMCGFPFLLLFLGNFFTTLRVVHQKFHSQQHGNKKD
notes: TMEM120A (TACAN), Mus musculus, full length, residues 1-343; the model of the structure holds residues 9-72, 76-250 and 262-335; A PreScission protease site lies between TACAN and the C-terminal eGFP; residues of the cut site probably stay on the C-terminus (surmised; expected monomer mass printed as 41,770 Da); Synthetic gene (GeneWiz); also called TACAN^WT; M. musculus TACAN; source: HEK293S …
B2: Mus musculus TACAN (TMEM120A) His196Ala, His197Ala mutant (natural protein, UniProt Q8C1E7 1-343, looked up)
chain: B1 chain with H196A, H197A
notes: TMEM120A (TACAN), Mus musculus, full length, residues 1-343, with H196A and H197A; the model of the structure holds residues 9-72, 76-250 and 262-335; Same construct as m1 with the two mutations; co-purified with coenzyme A (small molecule); Expected monomer mass printed as 41,637 Da; also called TACAN^(H196A H197A); His196Ala His197Ala mutant TACAN; source: HEK293S GnTI- cells, BacMam …

Molecular target: the molecule itself
Test: cryo-EM structure; single-particle cryo-EM; purified protein at 6–7 mg/mL in digitonin, mixed with 2.9 mM FFC8; refined with C2 symmetry

Protein | stoichiometry N | binding result
B1 | 2 | –
B2 | – | binds
